Results published in publication PMC6197280, “A distinct isoform of ZNF207 controls self-renewal and pluripotency of human embryonic stem cells”.

B1: ZNF207 motif WT (dsDNA)
DNA 1: TTTGAAACACTCTTTTTGTAG
DNA 2: CTACAAAAAGAGTGTTTCAAA
B2: ZNF207 motif MUT (dsDNA)
DNA 1: TTTTAAACACGCGTGTGTTAG
DNA 2: CTAACACACGCGTGTTTAAAA

Biological target: ZNF207 isoform C (human, UniProt O43670-4 1-494)
Assay: EMSA; 100 ng protein, 3 ng probe, 1 ug poly(dI-dC), 10 mM MgCl2; 10 mM HEPES pH 7.5, 10 mM KCl, 10 mM MgCl2, 1 mM DTT, 1 mM EDTA, 10% glycerol, 1 ug poly(dI-dC) in 10 ul, 10 min at room temperature; 5% native PAGE in 0.5x TBE
Conditions: protein: commercial; label: 5' biotin on sense strand; duplex of annealed sense and reverse strands

Chain of ZNF207 isoform C (O43670 other isoform, or with tags, fused parts or gaps): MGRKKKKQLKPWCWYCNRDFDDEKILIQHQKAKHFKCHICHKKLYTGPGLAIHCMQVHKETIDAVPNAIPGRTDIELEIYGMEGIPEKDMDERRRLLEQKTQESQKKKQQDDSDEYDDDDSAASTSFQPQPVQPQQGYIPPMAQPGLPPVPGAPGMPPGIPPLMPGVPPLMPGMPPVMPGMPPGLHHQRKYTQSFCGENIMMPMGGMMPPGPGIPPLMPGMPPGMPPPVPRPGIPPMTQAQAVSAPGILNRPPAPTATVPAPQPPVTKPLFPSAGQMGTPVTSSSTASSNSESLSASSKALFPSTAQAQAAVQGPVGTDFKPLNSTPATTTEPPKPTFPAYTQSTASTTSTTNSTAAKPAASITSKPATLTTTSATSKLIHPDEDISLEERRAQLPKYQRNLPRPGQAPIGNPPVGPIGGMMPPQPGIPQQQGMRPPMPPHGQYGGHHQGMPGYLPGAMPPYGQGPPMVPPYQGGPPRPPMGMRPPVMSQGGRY

Binder	binding result
B1	binds
B2	no binding
